Reference: patent US20110280900A1 (INTERVET INTERNATIONAL B V, published 2011)

Biological target: the molecule itself
Test: immunoblot after non-denaturing gel; only the 65 kDa band detected

B1: Clostridium chauvoei toxin A (CctA), native secreted toxin in C. chauvoei culture supernatants (other)
chain: QENTCIVETPSEGVKTFTSSDTAYADYNCFKTNLSVTFIEDQHNNQLTALVSTEGSFIPSGLSRVGGYYQADMYWPSKYYTTLTTYDRNNRVKITKSIPTNQIDTVSVSETMGYSIGGSLSIEYGKEGPKAGGGINGSYTAQRSVTYDQPDYRTLLMKDSVNSASWEVAFNATKDGYDRDSYHGIYGNQLFMRYRLYNTGINNLTTDNNLSSLIVGGFSPKVVIALTAPKGTEESTVKVEYNRFNDQYRLRWSGTEWYGENNRNSRIDSSSESFILNWKNHTVEHAGY
notes: also called CctA toxin; mature CctA
B1: binds.
